Measured values as given in the supplement of paper PMC10724198.
± gives the standard deviation of the averaged measurements.

Assays:
[1] = system: Saccharomyces cerevisiae; test: protein stability index of tFT-peptide fusion (C-terminal peptide) (PSI (0-1 scale)); higher = more stable (slower turnover)
Procedure: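 MPS profiling in S. cerevisiae of the tFT-X12 degron library: putative degron peptides plus stable controls, 12 aa, fused to the C-terminus of a sfGFP-mCherry timer. Cells are FACS-sorted into 8 mCherry/sfGFP bins and deep-sequenced. PSI runs from 0 (unstable) to 1 (stable). Backgrounds are wild type, das1Δ and doa10Δ at 30 °C, and wild type, das1Δ, cdc34-1 and cdc53-1 at 37 °C; 2-3 technical replicates each.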

[2] = system: Saccharomyces cerevisiae; test: as above; settings: genetic background: wild type; temperature: 30 C
[3] = genetic background: cdc34-1, temperature: 37 C
[4] = genetic background: cdc53-1, temperature: 37 C
[5] = genetic background: das1 deletion, temperature: 30 C
[6] = genetic background: das1 deletion, temperature: 37 C
[7] = genetic background: doa10 deletion, temperature: 30 C
[8] = genetic background: wild type, temperature: 30 C
[9] = genetic background: wild type, temperature: 37 C
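Note: PSI is a weighted mean of sequencing reads over stability bins, variants kept only with over 10 reads, mCherry proximal and sfGFP distal, peptide attached via GGGS linker.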

Row | Sequence | protein stability index [1, 3] | protein stability index [1, 4] | protein stability index [1, 5] | protein stability index [1, 6] | protein stability index [1, 7] | protein stability index [1, 8] | protein stability index [1, 9] | protein stability index [2]
1 | VCLFRLVVFFPV | 0.234 ± 0.039 | 0.335 ± 0.024 | 0.217 ± 0.021 | 0.426 ± 0.037 | 0.196 ± 0.02 | 0.222 ± 0.018 | 0.377 ± 0.014 | 0.349 ± 0.005
2 | VCLLFRFCCWFW | 0.351 ± 0.024 | 0.357 ± 0.0081 | 0.305 ± 0.013 | 0.461 ± 0.02 | 0.331 ± 0.025 | 0.304 ± 0.01 | 0.414 ± 0.03 | 0.371 ± 0.017
3 | VCTFLLVSFFLS | 0.223 ± 0.0027 | 0.315 ± 0.064 | 0.237 ± 0.028 | 0.423 ± 0.012 | 0.186 ± 0.019 | 0.185 ± 0.017 | 0.33 ± 0.0099 | 0.326 ± 0.017
4 | VCVYLVSLPYLA | 0.451 ± 0.015 | 0.462 ± 0.025 | 0.39 ± 0.026 | 0.522 ± 0.021 | 0.239 ± 0.018 | 0.232 ± 0.03 | 0.381 ± 0.011 | 0.303 ± 0.035
5 | VDFCLLFLLLLV | 0.427 ± 0.041 | 0.442 ± 0.0072 | 0.349 ± 0.034 | 0.482 ± 0.032 | 0.425 ± 0.027 | 0.331 ± 0.02 | 0.462 ± 0.014 | 0.432 ± 0.025
6 | VFCLPISAPPLH | 0.679 ± 0.0083 | 0.739 ± 0.022 | 0.642 ± 0.023 | 0.727 ± 0.0031 | 0.626 ± 0.02 | 0.635 ± 0.019 | 0.7027 ± 0.0031 | 0.685 ± 0.023
7 | VFCMVLPFVLLT | 0.126 ± 0.018 | 0.0906 ± 0.016 | 0.194 ± 0.024 | 0.2715 ± 0.0011 | 0.1776 ± 0.0015 | 0.136 ± 0.02 | 0.157 ± 0.016 | 0.214 ± 0.035
8 | VFFCVLRVFFSA | 0.0798 ± 0.024 | 0.161 ± 0.015 | 0.175 ± 0.024 | 0.291 ± 0.0075 | 0.114 ± 0.013 | 0.132 ± 0.029 | 0.195 ± 0.0091 | 0.193 ± 0.017
9 | VFFIFFFAFLFF | 0.294 ± 0.035 | 0.289 ± 0.0075 | 0.335 ± 0.052 | 0.41 ± 0.0072 | 0.393 ± 0.01 | 0.322 ± 0.014 | 0.39 ± 0.03 | 0.329 ± 0.051
10 | VFFMFVFFPFPG | 0.523 ± 0.084 | 0.584 ± 0.035 | 0.404 ± 0.029 | 0.592 ± 0.03 | 0.368 ± 0.014 | 0.413 ± 0.028 | 0.538 ± 0.0059 | 0.471 ± 0.026
11 | VFGSRCLLTVVV | 0.472 ± 0.0098 | 0.477 ± 0.023 | 0.367 ± 0.032 | 0.5185 ± 0.0017 | 0.336 ± 0.018 | 0.358 ± 0.043 | 0.504 ± 0.0071 | 0.438 ± 0.043
12 | VFGWWSVVLRVA | 0.0612 ± 0.0012 | 0.0938 ± 0.009 | 0.166 ± 0.027 | 0.249 ± 0.0082 | 0.0577 ± 0.014 | 0.0694 ± 0.017 | 0.0612 ± 0.011 | 0.109 ± 0.029
13 | VFILGFLCLLFF | 0.403 ± 0.03 | 0.428 ± 0.014 | 0.342 ± 0.017 | 0.497 ± 0.077 | 0.362 ± 0.045 | 0.334 ± 0.024 | 0.445 ± 0.054 | 0.355 ± 0.036
14 | VFIPFGFCLCFV | 0.408 ± 0.012 | 0.4114 ± 0.0039 | 0.317 ± 0.019 | 0.466 ± 0.0087 | 0.318 ± 0.015 | 0.295 ± 0.017 | 0.4401 ± 0.0027 | 0.373 ± 0.0028
15 | VFLCFSWHFFLF | 0.4543 ± 0.0039 | 0.591 ± 0.035 | 0.411 ± 0.037 | 0.559 ± 0.036 | 0.297 ± 0.0049 | 0.304 ± 0.029 | 0.467 ± 0.011 | 0.405 ± 0.012
16 | VFLVGFRVTLDS | 0.267 ± 0.035 | 0.289 ± 0.011 | 0.219 ± 0.025 | 0.404 ± 0.018 | 0.189 ± 0.018 | 0.215 ± 0.033 | 0.419 ± 0.0069 | 0.295 ± 0.0062
17 | VFSFWVLCEVSV | 0.0333 ± 0.0097 | 0.0546 ± 0.015 | 0.0315 ± 0.0099 | 0.0841 ± 0.013 | 0.0219 ± 0.0031 | 0.0221 ± 0.0057 | 0.072 ± 0.02 | 0.04525 ± 0.0004
18 | VFVFTFSLSFYC | 0.223 ± 0.031 | 0.326 ± 0.0073 | 0.25 ± 0.028 | 0.356 ± 0.019 | 0.257 ± 0.02 | 0.274 ± 0.018 | 0.3241 ± 0.0021 | 0.3465 ± 0.0031
19 | VFVRDFLVSIVV | 0.0474 ± 0.014 | 0.0563 ± 0.0023 | 0.174 ± 0.025 | 0.196 ± 0.0061 | 0.139 ± 0.0096 | 0.164 ± 0.022 | 0.166 ± 0.011 | 0.257 ± 0.014
20 | VFWVLVSFLFYV | 0.339 ± 0.011 | 0.406 ± 0.012 | 0.307 ± 0.028 | 0.4496 ± 0.0013 | 0.281 ± 0.014 | 0.3 ± 0.018 | 0.4059 ± 0.0036 | 0.346 ± 0.023
21 | VFWVVFRALVGD | 0.191 ± 0.015 | 0.29497 ± 0.00028 | 0.217 ± 0.018 | 0.269 ± 0.02 | 0.222 ± 0.013 | 0.212 ± 0.0029 | 0.26 ± 0.0051 | 0.233 ± 0.022
22 | VGAGVFAWLWVA | 0.533 ± 0.02 | 0.664 ± 0.016 | 0.59 ± 0.016 | 0.7101 ± 0.001 | 0.128 ± 0.025 | 0.145 ± 0.024 | 0.135 ± 0.0078 | 0.199 ± 0.024
23 | VGAYSVVYVVFS | 0.481 ± 0.026 | 0.517 ± 0.011 | 0.322 ± 0.026 | 0.5467 ± 0.00081 | 0.272 ± 0.0067 | 0.318 ± 0.025 | 0.529 ± 0.0059 | 0.433 ± 0.036
24 | VGVLWALIVGVR | 0.167 ± 0.011 | 0.226 ± 0.02 | 0.191 ± 0.035 | 0.36 ± 0.0087 | 0.159 ± 0.0094 | 0.18 ± 0.012 | 0.289 ± 0.043 | 0.251 ± 0.035
25 | VGVYVWRGVLWA | 0.277 ± 0.025 | 0.402 ± 0.035 | 0.257 ± 0.024 | 0.444 ± 0.0077 | 0.184 ± 0.0022 | 0.218 ± 0.028 | 0.397 ± 0.024 | 0.296 ± 0.044
26 | VHHAFLPYTLVR | 0.502 ± 0.021 | 0.57 ± 0.011 | 0.375 ± 0.028 | 0.591 ± 0.017 | 0.361 ± 0.011 | 0.407 ± 0.019 | 0.5709 ± 0.0043 | 0.485 ± 0.01
27 | VHNIDLFVVCYI | 0.433 ± 0.025 | 0.443 ± 0.014 | 0.251 ± 0.047 | 0.482 ± 0.0094 | 0.222 ± 0.0048 | 0.258 ± 0.027 | 0.451 ± 0.015 | 0.346 ± 0.0067
28 | VIAFFSVLKRYV | 0.641 ± 0.0088 | 0.704 ± 0.011 | 0.58 ± 0.037 | 0.712 ± 0.0078 | 0.199 ± 0.0083 | 0.241 ± 0.0073 | 0.465 ± 0.0052 | 0.421 ± 0.016
29 | VKSAVLLFFLVT | 0.357 ± 0.0084 | 0.483 ± 0.019 | 0.359 ± 0.031 | 0.537 ± 0.0055 | 0.178 ± 0.016 | 0.199 ± 0.021 | 0.312 ± 0.01 | 0.257 ± 0.0044
30 | VLFFLVTSSVYF | 0.124 ± 0.036 | 0.263 ± 0.03 | 0.201 ± 0.031 | 0.37 ± 0.0049 | 0.159 ± 0.0068 | 0.187 ± 0.0095 | 0.327 ± 0.0083 | 0.269 ± 0.04
